Source: patent US11857601B2, “Pharmaceutical composition for cancer treatment comprising fusion protein including IL-2 protein and CD80 protein and anticancer drug” (GI INNOVATION, INC., priority 2020, dated 2024)

Columns and labels:
[1] = biological target: T1, CTLA-4 expressed on effector T cells (Homo sapiens, UniProt P16410); assay: CTLA-4 blockade bioassay; type: cell-based; conditions: CTLA-4 effector cells + aAPC/Raji cells, 16 hours
T1 construct: host or cells: CTLA-4 effector cells of the kit, co-cultured with aAPC/Raji cells
T1 sequence (P16410 36-223): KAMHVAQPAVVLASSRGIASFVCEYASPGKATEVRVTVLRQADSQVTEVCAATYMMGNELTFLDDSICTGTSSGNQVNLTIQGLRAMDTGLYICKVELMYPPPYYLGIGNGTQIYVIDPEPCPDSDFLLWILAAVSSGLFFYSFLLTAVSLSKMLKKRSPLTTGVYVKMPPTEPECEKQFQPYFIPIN
Experimental: An experiment was performed using a CTLA-4 blockade bioassay kit (Promega cat No. JA4005). The experiment is briefly described as follows. CTLA-4 effector cells kept in liquid nitrogen were thawed in a 37° C. constant temperature water bath for 3 minutes, and 0.8 ml of CTLA-4 effector cells were mixed well with 3.2 ml of pre-warmed assay buffer (90% RPMI+10% fetal bovine serum). Then, the mixture was added to a 96-well white cell culture plate (SPL, cat No. 30196) at 25 μl per well. Then, 25 μl of GI101 at various concentrations was added thereto. For a negative control, 25 μl of assay buffer was added thereto. Then, the 96-well white cell culture plate was covered and placed at room temperature until aAPC/Raji cells were prepared.
aAPC/Raji cells kept in liquid nitrogen were thawed in a 37° C. constant temperature water bath for 3 minutes, and 0.8 ml of aAPC/Raji cells were mixed well with 3.2 ml of pre-warmed assay buffer. Then, 25 μl of the mixture was added to the plate at per well, and reaction was allowed to proceed in a 5% CO2 incubator at 37° C. for 16 hours. […] Reaction was allowed to proceed at room temperature for 10 minutes, and then luminescence was measured with Cytation 3 (BioTek instruments, Winooski, VT, USA). […]

[2] = system: HCT116 cells; assay: Cancer cell killing, GI-101 and Pertuzumab, HCT116 with NK cells; type: cell-based, human; conditions: GI-101 0.4-100 nM, Pertuzumab 16.9 nM, 24 hours
Description: This experiment was to evaluate the effect of killing cancer cells by treating HCT116 cells (human colon cancer cells) with the test substance GI-101 alone or in combination with Pertuzumab substance in an in vitro environment.
HCT116 cells were purchased from the Korea cell line bank and cultured in McCoy's 5A medium (ATCC) containing 10% FBS (Gibco) and 1% antibiotic/antifungal agent (Gibco). For use in cancer cell killing test, the cells were harvested using trypsin (Gibco), and then suspended in McCoy's 5A medium, and then dead cells and debris were removed using Ficoll (GE Healthcare Life Sciences) solution. The cells suspended in McCoy's 5A medium were carefully layered on ficoll solution. […]
In order to identify the effect of killing the cells, a CytoTox Green reagent ([…]™ CytoTox Green, Satorius) that binds to the DNA of cells to be killed was prepared in 1 μl per 1 mL of RPMI1640 medium containing 5% human AB serum (Sigma). The prepared medium was used for dilution of the test substance, and the effect of killing the cells could be quantitatively identified by staining the cells to be killed when the test substance was co-cultured with cancer cell lines and PBMCs. […]

Substance: GI101: fusion protein: human CD80 fragment, Ig hinge, Fc domain, linker, IL-2 variant (2M) (R38A, F42A); SEQ ID NO: 9
- function of T cells (luminescence) [1]: activats the function of T cells rather than inhibiting the same
- effect of killing cancer cells [2]: excellent effect of killing cancer cells
